tested on: outer membrane proteins (OMPs) (Rickettsia conorii); test: ELONA; details: not given

Sequence	binding signal [A405]
ATCCGTCACACCTGCTCTCCAGATTTGGTGTTATGCTCTTGTTTGGCTTGGACTTGGTGTTGGCTCCCGTAT [R4-14R]	2.05
ATCCGTCACACCTGCTCTTTGGTTAATCCGAATTTGCTTGCACTTAAGTTGTGCTGGTGTTGGCTCCCGTAT [R4-1R]	2.12
ATACGGGAGCCAACACCAGCACAACTTAAGTGCAAGCAAATTCGGATTAACCAAAGAGCAGGTGTGACGGAT [R4-1F]	1.99

tested on: outer membrane proteins (OMPs) (Rickettsia rickettsii); test: ELONA; details: not given

Sequence	binding signal [A405]
ATACGGGAGCCAACACCACACACAGAGCGCCATGGACTCAGTCAGATGTGATGTAGAGCAGGTGTGACGGAT [R3-39F]	2.12
ATCCGTCACACCTGCTCTACATCACATCTGACTGAGTCCATGGCGCTCTGTGTGTGGTGTTGGCTCCCGTAT [R3-39R]	2.05
ATCCGTCACACCTGCTCTTTCACTAAGCTGACTTTTCACCTCGTCTTCGTGCCGTGGTGTTGGCTCCCGTAT [R3-40R]	1.99

tested on: WNV envelope peptide (West Nile virus); test: ELONA; details: not given

Sequence	binding signal [A405]
ATCCGTCACACCTGCTCTCAGCGGCGGCGGGCCCGGGCGATGGAGGTCCTGACATGGTGTTGGCTCCCGTAT [WNV 16R]	2.25
ATACGGGAGCCAACACCACAGCTGATATCGGATGGTCCGGCAGAGCAGGTGTGACGGAT [WNV 19F]	2.73
ATCCGTCACACCTGCTCTGCCGGACCATCCGATATCAGCTGTGGTGTTGGCTCCCGTAT [WNV 19R]	2.18
ATCCGTCACACCTGCTCTCAGAGACGGGGCCCCTGGCTGGGTGAAGGCCACGGGTGGTGTTGGCTCCCGTAT [WNV 20R]	2.47
ATACGGGAGCCAACACCACCCGTGGCCTTCACCCAGCCAGGGGCCCCGTCTCTGAGAGCAGGTGTGACGGAT [WNV 20F]	2.54
ATACGGGAGCCAACACCATGTCAGGACCTCCATCGCCCGGGCCCGCCGCCGCTGAGAGCAGGTGTGACGGAT [WNV 16F]	2.45
ATACGGGAGCCAACACCACCCCGTCGCCAAGCACTTGGCTGGGCTCTAACGGCCAGAGCAGGTGTGACGGAT [WNV 18F]	2

same assay, conditions: also positive in lateral flow (FIG. 9C)

Sequence	binding signal [A405]
ATCCGTCACACCTGCTCTGGCCGTTAGAGCCCAGCCAAGTGCTTGGCGACGGGGTGGTGTTGGCTCCCGTAT [WNV 18R]	2.65

tested on: CCHF envelope peptides (individual peptide not specified) (Crimean-Congo hemorrhagic fever virus); test: ELONA; details: not given

Sequence	binding signal [A405]
ATACGGGAGCCAACACCATGGTGACGGACCTTGAGAGCAAGACCGCTACGATTCAGAGCAGGTGTGACGGAT [C1-9F]	2.24
ATCCGTCACACCTGCTCTATGAGTCTATCCAGTTCTAAAAGTTCCGCTCTTTATTGGTGTTGGCTCCCGTAT [C1-1R]	1.99
ATACGGGAGCCAACACCACAGCTGACAATAGAAGGATATCCTGGGTACCGATGCAGAGCAGGTGTGACGGAT [C3-4F]	2.67
ATCCGTCACACCTGCTCTCCAAGGACACGTCACCGTATTGGCCCAACACTATGGTGTTGGCTCCCGTAT [C3-8R]	1.48
ATACGGGAGCCAACACCAATGAGAGCAAAGATCCCAGGATACACTAATCCCTGTAGAGCAGGTGTGACGGAT [C1-3F]	1.85
ATACGGGAGCCAACACCACAGACACCGAATGAGCAACACAACAACGGGACCCGTAGAGCAGGTGTGACGGAT [C2-8F]	1.65
ATCCGTCACACCTGCTCTATACCAACGGGGGACGGTCTGAGCTAGTGACGCCCGTGGTGTTGGCTCCCGTAT [C3-7R]	1.5
ATCCGTCACACCTGCTCTGCATCGGTACCCAGGATATCCTTCTATTGTCAGCTGTGGTGTTGGCTCCCGTAT [C3-4R]	2.47
ATCCGTCACACCTGCTCTACGGCCCTGCACCACTTATTCTAGGCAGTGTTCTTCTGGTGTTGGCTCCCGTAT [C1-10R]	1.62
ATCCGTCACACCTGCTCTGCAAAGAGGTCGTAGTGCCGTGTCCGGTCGGATACCTGGTGTTGGCTCCCGTAT [C2-10R]	1.66
ATCCGTCACACCTGCTCTCCAAGGACACGTTACCGTATTGGCCCAACACTATGGTGTTGGCTCCCGTAT [C1-1/7R]	2.05
ATCCGTCACACCTGCTCTGGGCAGCACTACCGGTGTCGTTGTGTTGGCATTTCTTGGTGTTGGCTCCCGTAT [C1-6R]	1.95
ATACGGGAGCCAACACCATAGTGTTGGGCCAATACGGTAACGTGTCCTTGGAGAGCAGGTGTGACGGAT [C1-1/7F]	1.9
ATCCGTCACACCTGCTCTCGGGACGCGAGCGGCCTGCGGGAACCAGGCGGGGGCTGGTGTTGGCTCCCGTAT [C3-6R]	2.48
ATCCGTCACACCTGCTCTGAATCGTAGCGGTCTTGCTCTCAAGGTCCGTCACCATGGTGTTGGCTCCCGTAT [C1-9R]	1.56

tested on: outer membrane proteins (OMPs) (Rickettsia typhi); test: ELONA; details: not given

Sequence	binding signal [A405]
ATCCGTCACACCTGCTCTACAGTTAGAGCTTGCCGTATGCCTTTGTTAACATAATGGTGTTGGCTCCCGTAT [R1-30R]	2.85
ATCCGTCACACCTGCTCTTGCTTATATTTAATTTTTTTCCCAAACTAGTAAGATTGGTGTTGGCTCCCGTAT [R1-21R]	2.88
ATACGGGAGCCAACACCACCAACGAATACTACCAGGCCTAGCACAATACACAACAGAGCAGGTGTGACGGAT [R1-27bF]	2.62

tested on: outer membrane proteins (OMPs) (Rickettsia parkeri); test: ELONA; details: not given

Sequence	binding signal [A405]
ATACGGGAGCCAACACCAGAAAATGAATACTTCCCAAGCTTGTCAAGCAAGTAAGAGCAGGTGTGACGGAT [R2-5F]	1.95
ATCCGTCACACCTGCTCTTTTCCTATGAATGGTAATCAATTAGAGTCTATATCTTGGTGTTGGCTCCCGTAT [R2-17R]	2.05
ATACGGGAGCCAACACCATAACGGTTCCCTTAATGCGCTACCCACACTATACAAGAGCAGGTGTGACGGAT [R2-14F]	2.08

tested on: outer membrane proteins (OMPs) (Rickettsia belli); test: ELONA; details: not given

Sequence	binding signal [A405]
ATCCGTCACACCTGCTCTAAATAGATCACGCATAATGGCATTAGTATTAGTGTTGGTGTTGGCTCCCGTAT [R5-21bR]	1.89
ATACGGGAGCCAACACCAGCACTGCAGTTAACATTTACGAAGAGGCTTTAATGCAGAGCAGGTGTGACGGAT [R5-39F]	1.95
ATACGGGAGCCAACACCATAACAAATAACCACCCTCAATGCTAGATAGTGGCTTAGAGCAGGTGTGACGGAT [R5-23F]	2.93

tested on: TBEV target (not specified) (Tick-borne encephalitis virus); test: ELONA; details: not given

Sequence	binding signal [A405]
ATACGGGAGCCAACACCACACACAGAGCGCCATGGACTCAGTCAGATGTGATGTAGAGCAGGTGTGACGGAT [TBEV-8F]	1.85
ATCCGTCACACCTGCTCTGAGCGCTGACTGCCAACCCCTGATGGACTCCTGCGGTGGTGTTGGCTCCCGTAT [TBEV-2R]	2.6
ATCCGTCACACCTGCTCTCAACGGCCACTAGTCTATTCACTTAAAGGGGCATGGTGGTGTTGGCTCCCGTAT [TBEV-5R]	1.93
ATACGGGAGCCAACACCAGAGACGTCTTAGCCTCGCGATCCCGTCCGTTGGCCCAGAGCAGGTGTGACGGAT [TBEV-6F]	2.07
ATACGGGAGCCAACACCATCCTCCCGCGACGTCTGGAGAACAGCCTCTACTTTAAGAGCAGGTGTGACGGAT [TBEV-7F]	2.02
ATACGGGAGCCAACACCACACGAACGGAGTGCACCGGGGAAGATACTCCAACGCAGAGCAGGTGTGACGGAT [TBEV-3F]	1.8
ATCCGTCACACCTGCTCTTCCCCTAAACTTTTTTGACCTACCTGTATAATTGGCTGGTGTTGGCTCCCGTAT [TBEV-4R]	2.12
ATCCGTCACACCTGCTCTGCGTTGGAGTATCTTCCCCGGTGCACTCCGTTCGTGTGGTGTTGGCTCCCGTAT [TBEV-3R]	1.91
ATACGGGAGCCAACACCAGCCAATTATACAGGTAGGTCAAAAAAGTTTAGGGGAAGAGCAGGTGTGACGGAT [TBEV-4F]	1.88
ATACGGGAGCCAACACCATTGACTTGGCCGTCTCTGACCCCTAGCACCCCTCGCAGAGCAGGTGTGACGGAT [TBEV-10F]	1.95
ATACGGGAGCCAACACCACCATGCCCCTTTAAGTGAATAGACTAGTGGCCGTTGAGAGCAGGTGTGACGGAT [TBEV-5F]	2.06
ATACGGGAGCCAACACCACTCGGCACCGCCCTTCCGTATCGGCGAGTAACGTACAGAGCAGGTGTGACGGAT [TBEV-1F]	1.94
ATCCGTCACACCTGCTCTGCGAGGGGTGCTAGGGGTCAGAGACGGCCAAGTCAATGGTGTTGGCTCCCGTAT [TBEV-10R]	1.82
ATACGGGAGCCAACACCACCGCAGGAGTCCATCAGGGGTTGGCAGTCAGCGCTCAGAGCAGGTGTGACGGAT [TBEV-2F]	2.31
ATCCGTCACACCTGCTCTGTACGTTACTCGCCGATACGGAAGGGCGGTGCCGAGTGGTGTTGGCTCCCGTAT [TBEV-1R]	2.15
ATCCGTCACACCTGCTCTGGGCCAACGGACGGGATCGCGAGGCTAAGACGTCTCTGGTGTTGGCTCCCGTAT [TBEV-6R]	2.12
ATCCGTCACACCTGCTCTTAAAGTAGAGGCTGTTCTCCAGACGTCGCGGGAGGATGGTGTTGGCTCCCGTAT [TBEV-7R]	1.97
ATCCGTCACACCTGCTCTACATCACATCTGACTGAGTCCATGGCGCTCTGTGTGTGGTGTTGGCTCCCGTAT [TBEV-8R]	2.43

molecular target: CCHF Peptide 1 (envelope surface peptide) (Crimean-Congo hemorrhagic fever virus) (UniProt Q8JSZ3); test: SPR; details: not given
UniProt Q8JSZ3, sequence (Q8JSZ3 whole entry, looked up): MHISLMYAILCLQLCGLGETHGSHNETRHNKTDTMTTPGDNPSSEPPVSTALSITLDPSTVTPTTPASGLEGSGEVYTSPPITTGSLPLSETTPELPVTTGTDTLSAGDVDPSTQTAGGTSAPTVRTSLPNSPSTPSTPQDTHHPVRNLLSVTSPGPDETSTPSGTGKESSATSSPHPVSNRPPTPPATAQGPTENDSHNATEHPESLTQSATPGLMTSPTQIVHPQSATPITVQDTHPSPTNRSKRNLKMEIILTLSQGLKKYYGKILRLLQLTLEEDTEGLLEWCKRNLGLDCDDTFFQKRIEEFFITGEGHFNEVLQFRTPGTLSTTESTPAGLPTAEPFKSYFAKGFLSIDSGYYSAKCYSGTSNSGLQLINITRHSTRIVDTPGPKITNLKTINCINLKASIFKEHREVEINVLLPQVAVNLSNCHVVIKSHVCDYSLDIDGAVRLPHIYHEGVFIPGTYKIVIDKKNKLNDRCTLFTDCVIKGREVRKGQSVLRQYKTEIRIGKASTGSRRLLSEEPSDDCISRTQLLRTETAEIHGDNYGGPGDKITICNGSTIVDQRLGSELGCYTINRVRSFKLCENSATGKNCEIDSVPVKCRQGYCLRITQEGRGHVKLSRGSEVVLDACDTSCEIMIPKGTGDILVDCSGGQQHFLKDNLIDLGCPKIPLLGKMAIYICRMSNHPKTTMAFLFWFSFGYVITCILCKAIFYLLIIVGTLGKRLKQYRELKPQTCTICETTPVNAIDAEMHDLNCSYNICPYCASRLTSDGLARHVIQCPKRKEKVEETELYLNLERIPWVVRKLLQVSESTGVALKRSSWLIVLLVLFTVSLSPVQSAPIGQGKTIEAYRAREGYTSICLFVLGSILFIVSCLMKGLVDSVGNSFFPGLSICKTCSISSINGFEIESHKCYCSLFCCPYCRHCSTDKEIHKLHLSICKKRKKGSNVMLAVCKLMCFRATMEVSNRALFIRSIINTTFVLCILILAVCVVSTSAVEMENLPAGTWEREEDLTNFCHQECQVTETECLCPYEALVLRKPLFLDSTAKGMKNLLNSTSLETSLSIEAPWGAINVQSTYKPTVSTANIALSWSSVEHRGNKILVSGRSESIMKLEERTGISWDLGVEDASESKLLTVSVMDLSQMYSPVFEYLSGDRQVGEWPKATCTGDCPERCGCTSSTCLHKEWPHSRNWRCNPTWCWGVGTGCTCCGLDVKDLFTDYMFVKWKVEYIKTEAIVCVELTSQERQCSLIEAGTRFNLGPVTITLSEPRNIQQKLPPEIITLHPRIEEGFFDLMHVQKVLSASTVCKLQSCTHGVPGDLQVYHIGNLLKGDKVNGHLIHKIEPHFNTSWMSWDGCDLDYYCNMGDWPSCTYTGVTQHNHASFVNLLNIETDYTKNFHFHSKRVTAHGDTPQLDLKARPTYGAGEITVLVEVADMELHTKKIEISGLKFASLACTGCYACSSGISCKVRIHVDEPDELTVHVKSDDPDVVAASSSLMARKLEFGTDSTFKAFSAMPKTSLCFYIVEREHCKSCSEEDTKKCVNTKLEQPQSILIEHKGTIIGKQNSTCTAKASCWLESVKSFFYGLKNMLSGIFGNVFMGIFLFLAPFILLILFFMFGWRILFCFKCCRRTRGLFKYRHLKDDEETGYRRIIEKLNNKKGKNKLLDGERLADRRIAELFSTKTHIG

Sequence	Kd [pM]
ATACGGGAGCCAACACCATGGTGACGGACCTTGAGAGCAAGACCGCTACGATTCAGAGCAGGTGTGACGGAT [C1-9F]	8.13

— patent publication US20120149889
